# Assay results as given in US5198419A, “Formulated medicines for enhancing the efficacy of beta-lactam antibiotics in prophylaxis and treatment against infectious disease due to pathogenic bacteria” (Immuno Japan Inc., priority 1989, dated 1993).
# Entries after “also recorded” stand apart in the source; their conditions may differ.
# Experiments:
# [1] = bovine lactoferrin, oral; cited from earlier work
# [2] = system: Klebsiella pneumoniae strain 3K25; experiment: Example 8: dose-response relationship of potentiation of cefpodoxime efficacy by oral lactoferrin; type: in vivo, mice, ddY
# Method: (§1) For ED50 values, a range of amounts of antibiotics is given in the examples (e.g., penicillin G: 0.4, 0.2, 0.1, 0.05 mg/mouse). To calculate the ED50, groups of mice in the monotherapy groups and groups of mice in the combined therapy groups received the indicated amount of antibiotic (e.g., one group received 0.4 mg/mouse of penicillin G, one group received 0.2 mg/mouse of penicillin G, one group received 0.1 mg/mouse of penicillin G, one group received 0.05 mg/mouse of penicillin G).
# The dose-response relationship of the potentiation of the antibiotic efficacy by lactoferrin was determined using the same experimental infection system as described in Example 1. Male ddY mice, five weeks of age, weighing approximate 20.3 g, were randomly allocated into groups (n=10); the first group was assigned to the cefpodoxime control (5 mg/mouse). The mice were intraperitoneally injected with pneumobacillus, Klebsiella pneumoniae strain 3K25, 3×10^5 per mouse. One hour after the injection, the antibiotic cefpodoxime (1, 0.5, 0.25 and 0.125 mg/mouse) was orally given in 0.2 ml of physiological saline.
# pathogenic bacteria = experiment: Potentiation of beta-lactam antibiotics by lactoferrin at the whole animal level (general statements); type: in vivo
# Method: Co-administration of lactoferrin with beta-lactam antibiotics greatly reduces the antibiotic requirement, that is, 1/2 to 1/6 of the amount of the antibiotics required in monotherapy in combination with lactoferrin (combined therapy) show the same curative effects as the antibiotic treatment alone (monotherapy). Oral administration of lactoferrin is an effective route, and the dose of lactoferrin required for this potentiation is 0.5-100 mg/kg and the optimum dose may be 1-10 mg/kg.
# Apolactoferrin can be utilized as a raw material to prepare lactoferrin with desired degrees of iron-saturation by adding calculated amounts of ferric ions in the presence of carbonium anions. […] Therefore, lactoferrins with various degrees of iron-saturation can be successfully utilized in this invention. The efficacy potentiation of beta-lactam antibiotics by lactoferrin is independent of the degree of the iron-saturation of lactoferrin.
# When lactoferrin is orally dosed to potentiate the efficacy of beta-lactam antibiotics, either the combined formulation with the antibiotics or the formulation containing lactoferrin alone as an active ingredient can be successfully used. When lactoferrin is dosed separately from the antibiotics, the timing of the dosing is very important. The potentiating effect is the strongest when lactoferrin is given from six hours before to one hour after the antibiotic administration.
# [3] = system: Klebsiella pneumoniae 3K25; experiment: Example 7: experimental infection in mice, cefaclor with or without native lactoferrin; type: in vivo, strain ddY; conditions: simultaneous oral beta-lactam antibiotics with lactoferrin one hour after i.p. injection (as shown in Table 3)
# [4] = Stability of bovine lactoferrin powder; type: physicochemical
# From the text: The stability of bovine lactoferrin powder is also not affected by the degree of iron-saturation. […] Much care should be taken to avoid lactoferrin denaturation, especially denaturation by heat, in any formulating process. Due to its high stability, it is readily processed into mixed formulations with beta-lactam antibiotics for oral administration in any proportion, for example, freely mixed with lactose, cellulose, cellulose derivatives, magnesium stearate, and talc. One of the best ways to make lactoferrin liquid formulations, such as tincture and syrup, is adjustment of the pH to pH 3.1-4.0 by the addition of lactic acid to avoid bacterial contamination, then add paraaminobenzoic acid derivatives as preservatives against fungal contamination, and filtration through membrane filters (e.g., with pore size of 0.2 μm) into aseptic bottles.
# [5] = system: Staphylococcus aureus 209P; experiment: Example 9: time-schedule of lactoferrin administration and efficacy of amoxicillin; type: in vivo, mice, ddY; conditions: lactoferrin dosed from 12 hours before to three hours after the injection
# Method: as §1
# The effect of time-schedule of lactoferrin administration on the potentiation of antibiotic efficacy was examined using an experimental model similar to Example 1. Male ddY mice (n=10), five weeks old, weighing an average of 21.9 g, were used in this experiment. On day 0 all the mice were intraperitoneally injected with 1.2×10^5 CFU/mouse of Staphylococcus aureus 209P. Amoxicillin ([…], 0.625 mg/mouse) was orally given one hour after the injection.
# [6] = system: Klebsiella pneumoniae strain 3K25; experiment: Example 2: experimental infection in mice, cefpodoxime with or without apolactoferrin; type: in vivo, strain ICR; conditions: lactoferrin treated control (iron free apolactoferrin 0.4 mg p.o.)
# Method: as §1
# Sixty male mice, strain ICR, five weeks of age, weighing 19.3±1.1 g (mean body weight±the standard deviation) were randomly allocated into ten groups (n=6), and intraperitoneally injected with pneumobacilli, Klebsiella pneumoniae strain 3K25, 5×10^5 CFU/mouse. One hour after the injection, the first group was orally given 0.2 ml of physiological saline, the second group orally given iron free apolactoferrin (0.4 mg) in 0.2 ml of saline, the third through the sixth groups were orally given cefpodoxime (4, 2, 1, and 0.5 mg/mouse) in 0.2 ml saline, and the seventh through the tenth groups orally given the admixture of cefpodoxime (4, 2, 1, and 0.5 mg/mouse) and apolactoferrin (0.4 mg) in 0.2 ml of saline. Mice were fed ad libitum and observed for a week under the same conditions as described in Example 1.
# Escherichia coli #11 = experiment: Example 6: experimental infection in mice, ampicillin with or without apolactoferrin; type: in vivo, strain ddY; conditions: simultaneous administration of lactoferrin with ampicillin
# Method: as §1
# Male mice, strain ddY, five weeks old, weighing an average of 21.5 g, were randomly allocated into groups (n=10), and they were intraperitoneally injected with Escherichia coli #11, 1.2×10^6 CFU/mouse. Immediately after the injection, the untreated control group was orally given 0.2 ml of distilled water, the second through the fifth groups were treated once orally by ampicillin (8, 4, 2 and 1 mg/mouse), and the sixth through the ninth groups with ampicillin (4, 2, 1 and 0.5 mg/mouse) plus apolactoferrin (1 mg/mouse) in 0.2 ml of distilled water. The mice were fed ad libitum and observed for one week under the same conditions as described in Example 1. […] It is apparent from the results that lactoferrin not only potentiates the efficacy of the cephalosporin class but also the penicillin class of antibiotics.
# [7] = system: Klebsiella pneumoniae strain 3K25; experiment: Example 5: experimentally infected fed and fasted mice, cefpodoxime with or without native lactoferrin; type: in vivo, strain ICR; conditions: cefpodoxime
# Method: as §1
# Male mice, strain ICR, five weeks old, weighing an average of 21.6 g, were randomly allocated into sixteen groups (n =6). During the next 24 hours, eight groups were allowed free access to diet and water, while the other eight groups were fasted overnight. On the next day, all the mice were injected with 1.4×10^6 CFU/mouse of Klebsiella pneumoniae strain 3K25. The minimal lethal dose of this bacterium is […], and thus the injected dose was 1,000 times greater than the minimal lethal dose. Immediately after the injection, the fed groups were orally given cefpodoxime (10, 5, 2.5, and 1.25 mg/mouse) simultaneously with or without native lactoferrin (0.2 mg/mouse). The fasted groups also were orally given cefpodoxime (10, 5, 2.5, and 1.25 mg/mouse) simultaneously with or without native lactoferrin (0.2 mg/mouse).
# [8] = system: Klebsiella pneumoniae strain 3K25; experiment: Example 1: experimental infection in mice, cefpodoxime with or without native lactoferrin; type: in vivo, strain ICR; conditions: lactoferrin alone 0.4 mg/mouse p.o.; within 24 hours / one day after injection
# Method: as §1
# Sixty male mice, strain ICR, four weeks of age, body weight 19±1.0 g (mean±the standard deviation) were randomly divided into ten groups (n=6); the first group was assigned to the untreated control, the second group to the lactoferrin treated control group, the third through the sixth groups to the cephalosporin treated controls, and the seventh through the tenth groups to the combined treatment group of cephalosporin and lactoferrin. The mice were intraperitoneally injected with pneumobacillus, Klebsiella pneumoniae strain 3K25, 5×10^6 colony forming units (CFU) per mouse. The antibiotics used were orally active cephalosporin or cefpodoxime, and the bovine lactoferrin was the native one derived from cheese whey with 28.5% iron-saturation. […]
molecule,measurement,setting,value
"lactoferrin: bovine lactoferrin, the native one derived from cheese whey with 28.5% iron-saturation (protein, UniProt P24627 20-708, looked up, 28.5% iron-saturated, bovine lactoferrin, the native one derived from cheese whey with 28.5% iron-saturation) Lactotransferrin: APRKNVRWCTISQPEWFKCRRWQWRMKKLGAPSITCVRRAFALECIRAIAEKKADAVTLDGGMVFEAGRDPYKLRPVAAEIYGTKESPQTHYYAVAVVKKGSNFQLDQLQGRKSCHTGLGRSAGWIIPMGILRPYLSWTESLEPLQGAVAKFFSASCVPCIDRQAYPNLCQLCKGEGENQCACSSREPYFGYSGAFKCLQDGAGDVAFVKETTVFENLPEKADRDQYELLCLNNSRAPVDAFKECHLAQVPSHAVVARSVDGKEDLIWKLLSKAQEKFGKNKSRSFQLFGSPPGQRDLLFKDSALGFLRIPSKVDSALYLGSRYLTTLKNLRETAEEVKARYTRVVWCAVGPEEQKKCQQWSQQSGQNVTCATASTTDDCIVLVLKGEADALNLDGGYIYTAGKCGLVPVLAENRKSSKHSSLDCVLRPTEGYLAVAVVKKANEGLTWNSLKDKKSCHTAVDRTAGWNIPMGLIVNQTGSCAFDEFFSQSCAPGADPKSRLCALCAGDDQGLDKCVPNSKEKYYGYTGAFRCLAEDVGDVAFVKNDTVWENTNGESTADWAKNLNREDFRLLCLDGTRKPVTEAQSCHLAVAPNHAVVSRSDRAAHVKQVLLHQQALFGKNGKNCPDKFCLFKSETKNLLFNDNTECLAKLGGRPTYEEYLGTEYVTAIANLKKCSTSPLLEACAFLTR",excretion in intact form in feces,[1],considerable amounts are excreted in intact form in feces
same,resistance to gastrointestinal digestion,[1],highly resistant to gastrointestinal digestion
same,potentiation of antibiotic efficacy,"[2]; lactoferrin doses from 50 to 0.05 mg per mouse, cefpodoxime",significantly potentiated the antibiotic efficacy at the same magnitude regardless of the dose
same,lactoferrin dose at which potentiation reaches a plateau,[2]; with cefpodoxime,0.05 mg per mouse
same,effect of the degree of iron-saturation on potentiation of beta-lactam antibiotics,"pathogenic bacteria; 100%, 28% and 0% iron-saturated lactoferrin",does not affect the potentiation
same,potentiating effect by timing of lactoferrin dosing,pathogenic bacteria; 12 hours before or six hours after the antibiotic administration,significant but less potent effect
same,potentiating effect by timing of lactoferrin dosing,pathogenic bacteria; from six hours before to one hour after the antibiotic administration,the strongest
same,potentiation of the antibiotic efficacy versus antibiotic treatment alone,[3],2.8 fold
same,effect of the degree of iron-saturation on stability,[4],not affected
same,stability,[4]; room temperature,very stable at room temperature
same,potentiation of amoxicillin's efficacy,[5],significantly potentiated
same,mortality within 24 hours,[6],All the mice died within 24 hours
same,potentiation of ampicillin efficacy in vivo,Escherichia coli #11,eight fold
same,rate of potentiation of antibiotic efficacy,[7]; fasted state,five fold
same,rate of potentiation of antibiotic efficacy,[7]; fed state,three fold
same,mortality,[8],all mice in those groups died by one day post-injection; also recorded: died within 24 hours
